Measured values reported in article PMC6984350 (Structure (London, England : 1993), 2018).

T1: Filamin A domains 4-6, wild type (human, UniProt P21333 571-861)
T1 sequence (looked up): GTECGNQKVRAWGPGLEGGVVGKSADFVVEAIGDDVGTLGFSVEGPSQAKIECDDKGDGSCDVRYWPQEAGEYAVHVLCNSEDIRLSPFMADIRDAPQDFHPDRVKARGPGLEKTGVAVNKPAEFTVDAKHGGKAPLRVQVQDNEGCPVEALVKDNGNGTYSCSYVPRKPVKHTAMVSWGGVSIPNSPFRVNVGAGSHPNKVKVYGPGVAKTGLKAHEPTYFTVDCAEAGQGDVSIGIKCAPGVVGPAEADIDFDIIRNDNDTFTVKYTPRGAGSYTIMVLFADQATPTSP

B1: PTPN12 600–673 (domain or fragment, UniProt Q05209 600-673, looked up)
chain: PLHSDDSDSDERNSDGAVTQNKTNISTASATVSAATSTESISTRKVLPMSIARHNIAGTTHSGAEKDVDVSEDS
B2: PTPN12 C-terminal domain (600–780) (domain or fragment, UniProt Q05209 600-780, looked up)
chain: PLHSDDSDSDERNSDGAVTQNKTNISTASATVSAATSTESISTRKVLPMSIARHNIAGTTHSGAEKDVDVSEDSPPPLPERTPESFVLASEHNTPVRSEWSELQSQERSEQKKSEGLITSENEKCDHPAGGIHYEMCIECPPTFSDKREQISENPTEATDIGFGNRCGKPKGPRDPPSEWT
B3: PTPN12 634–709 (domain or fragment, UniProt Q05209 634-709, looked up)
chain: ATSTESISTRKVLPMSIARHNIAGTTHSGAEKDVDVSEDSPPPLPERTPESFVLASEHNTPVRSEWSELQSQERSE
B4: PTPN12–600-709 (domain or fragment, UniProt Q05209 600-709, looked up)
chain: PLHSDDSDSDERNSDGAVTQNKTNISTASATVSAATSTESISTRKVLPMSIARHNIAGTTHSGAEKDVDVSEDSPPPLPERTPESFVLASEHNTPVRSEWSELQSQERSE

What follows are binders tested against T1, Filamin A domains 4-6, wild type (assay: SPR).

Q: B1 was tested. Which Kd did it give?
A: The Kd was over 10000 µM.

Q: For B2, which Kd is on record?
A: Its Kd is about 0.33 µM.

Q: For PLHSDDSDSDERNSDGAVTQNKTNISTASATVSAA (domain or fragment, UniProt Q05209 600-634, looked up) [PTPN12–600-634], which Kd is on record?
A: Its Kd is over 10000 µM.

Q: For B3, which Kd is on record?
A: Its Kd is 0.27 µM.

Q: With B4 as the binder, how does the Kd read?
A: The Kd was 0.32 µM.
